US7217694B2, “Inhibitors of IAPP fibril formation and uses thereof” (The Governing Counsel of the University of Toronto, priority 2000, dated 2007)
Entries after “also recorded” stand apart in the source; their conditions may differ. One block for each molecule: values may come before it.

Key:
[1] = biological target: T1, hIAPP 1–37 (Homo sapiens, UniProt P10997); assay: Negative stain electron microscopy of IAPP fibril morphology and density; format: biochemical; conditions: for effect on IAPP fibril morphology / density / aggregation (EM): molar ratio not stated
T1 construct: Synthetic human IAPP (1–37) was purchased from BACHEM; purchased BACHEM (Torrence, Calif.); host or cells: chemical synthesis
T1 sequence (P10997 34-70): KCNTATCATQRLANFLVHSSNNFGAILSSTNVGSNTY
Source text: (§1) FIG. 1 illustrates the sequence of the amyloid-β (Aβ) peptide and its proposed structural domains. A peptide-based approach similar to that used for Aβ (Tjernberg, et al, J Biol Chem 272:12601–12605, 1997) has been used for targeting two key domains in IAPP initially ranging from the 8–20 and 20–29 sequences as shown in FIG. 2. These peptides, as has been shown for Aβ peptides, are able to bind to the full-length IAPP peptide and alter fibrillogenesis. The peptides disrupt fibrillogenesis by disrupting the folding into the amyloidogenic β-sheet conformation, disrupting protofilament interactions, and/or interfering with side chain interactions within the folded IAPP, which are necessary for aggregation and fibril formation. The peptides that have been examined (shown in FIG. 2) were small, synthetic hexapeptides that correspond to the principal sequence domains of IAPP. […] The in vitro assays included: Circular Dichroism (CD), to look at changes in folding of the amyloidogenic β-sheet; negative stain electron microscopy (EM) to examine changes in fibril morphology and relative density; and ThT fluorescence assay which provides a quantitative assessment of fibril formation.
TEM was used for structural analysis of in vitro assembled fibrils. Aliquots (4 μl) were applied to pioloform and carbon coated grids. The samples were incubated on the grids for 3 minutes at room temperature, excess material blotted off and stained with 1% phosphotungstic acid (PTA). Excess PTA was blotted off and the sample was left to air dry. All samples were examined using a Hitachi 7000 electron microscope with an accelerating voltage of 75 kV.
In preliminary work the series of peptides were synthesized from the 20–29 domain and examined, via CD, EM and ThT fluorescence, at two molar ratios (1:10 and 1:20) in comparison to the full-length IAPP residues 1–37. The following data (FIGS. 5A to 5D, 6A to 6C and 7A to 7B) were obtained.

[2] = biological target: T1, hIAPP 1–37; assay: Circular dichroism (CD) of IAPP conformational change, random coil to β-sheet; format: biochemical; conditions: for effect on IAPP β-sheet formation / precipitation (CD): pH 6.5; for effect on IAPP conformation (CD): higher molar ratios / higher concentrations; for inhibition of IAPP β-sheet formation / fibril formation, overall statement (CD): molar ratio not stated; for effect on initial random structure of IAPP (CD) / conformational change of IAPP (CD): time 0; for effect on initial random structure of IAPP (CD): 1:10 or 1:20 molar ratio; for inhibitory activity from the circular dichroism results, peptides from the 8–20 region (summary): FIGS. 9A to 16B; for description of activity on IAPP conformation (CD), peptides from the 8–20 region: concentration not given; for effect on IAPP conformation (CD), peptides from the 8–20 region: 10-fold molar excess
Source text: as §1
Synthetic human IAPP (1–37) was purchased from BACHEM (Torrence, Calif.), synthetic peptides spanning the region from IAPP 8 to 20 and 19–31 (FIG. 3) were synthesized by the Peptide Synthesis Laboratory at the University of Toronto using standard FMOC (Fluoroenylmethoxycarbonyl) based solid phase peptide synthesis methodology. The peptides were purified by reverse phase HPLC using water/acetonitrile mixtures buffered with 0. 1% trifluoroacetic acid, on a POROS 20R2 column. The synthetic peptides were solubilized in […] (1 mg/ml), filtered (0.2 μm), aliquotted and lyophilized (Higham, C E., et al., FEBS Lett. 470: 55–60, 2000). Aliquots were reconstituted as required in 20 mM sodium acetate buffer pH 6.5.
CD was used to measure the peptide conformational changes associated with fibril formation. CD experiments were carried out at room temperature, and spectra (average of 5 scans) were collected using a Jasco J720 spectropolarimeter and quartz cuvettes with a path length of 1 mm. […]

[3] = biological target: T2, Synthetic human IAPP (1-37) (human, not fully specified); assay: cell-based or functional assay
T2 peptide: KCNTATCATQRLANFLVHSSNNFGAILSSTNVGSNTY

Molecule: AILSST
effect on IAPP fibril morphology / density / aggregation (EM) [1]: fibrils formed were less numerous; also recorded: absence of fibrillar aggregates which could act as seeds
hIAPP conformation by CD ([2]; 1:1 molar ratio with IAPP): no longer inhibitory
inhibition of IAPP β-sheet transition and aggregation (CD) ([2]; 1:10 or 1:20 molar ratio (10- or 20-fold molar excess)): very strong inhibitors of IAPP β-sheet transition
hIAPP conformation by CD ([2]; 5-fold molar excess): able to maintain hIAPP as a random coil peptide
inhibition of IAPP β-sheet conformational change at reduced concentrations (CD) ([2]; 5-fold molar excess (1:5) or 1:1 molar ratio): capable of maintaining the majority of hIAPP in a random coil conformation
effect on IAPP β-sheet formation / precipitation (CD) ([2]; 48-hour incubation): able to prevent the attenuation of signal due to precipitation of IAPP
effect on IAPP conformation (CD) [2]: prevented the conformational change to β-sheet
inhibition of IAPP β-sheet formation / fibril formation, overall statement (CD) [2]: greatest inhibition of IAPP fibril formation
effect on initial random structure of IAPP (CD) [2]: had no effect on the initial random structure of IAPP

Molecule: FGAILS
effect on IAPP fibril morphology / density / aggregation (EM) [1]: had no effect on the morphology of IAPP fibrillar aggregates
effect on IAPP β-sheet formation / precipitation (CD) ([2]; 48-hour incubation): little effect on the ability of hIAPP (1–37) to form a β-sheet
effect on initial random structure of IAPP (CD) [2]: had no effect on the initial random structure of IAPP

Molecule: GAILSST
effect on IAPP conformation (CD) [2]: prevented the conformational change to β-sheet

Molecule: ILSSTN
effect on IAPP β-sheet formation / precipitation (CD) ([2]; 48-hour incubation): little effect on the ability of hIAPP (1–37) to form a β-sheet
effect on initial random structure of IAPP (CD) [2]: had no effect on the initial random structure of IAPP

Molecule: NFGAIL
effect on IAPP fibrils (EM) ([1]; 20 fold molar excess): appeared to enhance IAPP aggregation
effect on IAPP fibril morphology / density / aggregation (EM) [1]: slightly enhanced fibril formation; also recorded: had no effect on the morphology of IAPP fibrillar aggregates; also recorded: immediate increase in the development of fibrils
inhibition of IAPP β-sheet formation / fibril formation, overall statement (CD) [2]: not inhibitory; also recorded: may actually enhance IAPP fibril formation
conformational change of IAPP (CD) ([2]; 10 fold excess): a conformational change at time 0
conformational change of IAPP (CD) ([2]; 20 fold excess): conformational change from random coil to β-sheet

Molecule: NNFGAI
effect on IAPP fibril morphology / density / aggregation (EM) [1]: had no effect on the morphology of IAPP fibrillar aggregates
effect on IAPP β-sheet formation / precipitation (CD) ([2]; 48-hour incubation): little effect on the ability of hIAPP (1–37) to form a β-sheet
effect on IAPP aggregation or precipitation (CD) ([2]; 48-hour incubation, 10 fold molar excess): no effect on aggregation or precipitation of hIAPP
IAPP conformation (CD) ([2]; 48-hour incubation, 20-fold molar excess): maintain IAPP in a random conformation
inhibition of IAPP β-sheet formation / fibril formation, overall statement (CD) [2]: little, if any, inhibitory properties
effect on initial random structure of IAPP (CD) [2]: had no effect on the initial random structure of IAPP

Molecule: RLANFL [FRA-015]
effect on IAPP fibril morphology / density / aggregation (EM) [1]: enhanced lateral aggregation (ribbon structures); also recorded: significantly accelerated aggregation

Molecule: SSNFGA
inhibition of normal IAPP fibrillar aggregation (EM) ([1]; reduced inhibitor concentrations): effective inhibitors of normal IAPP fibrillar aggregation

Molecule: SSNNFG
effect on IAPP fibril morphology / density / aggregation (EM) [1]: typical high density of IAPP fibrils was not seen; also recorded: absence of fibrillar aggregates which could act as seeds
hIAPP conformation by CD ([2]; 1:1 molar ratio with IAPP): maintained hIAPP (1–37) in a random coil conformation
effect on IAPP β-sheet formation / precipitation (CD) ([2]; 48-hour incubation): capable of maintaining IAPP in a random conformation
inhibition of IAPP β-sheet formation / fibril formation, overall statement (CD) [2]: strong inhibitors of β-sheet formation; also recorded: effective inhibitors even when used at low concentrations
effect on initial random structure of IAPP (CD) [2]: had no effect on the initial random structure of IAPP

Molecule: SNNFGA
sedimentation assay: soluble hIAPP remaining after 24 hours, 10 fold excess of peptide [3]: ~15%
sedimentation assay: soluble hIAPP remaining after 48 hours, 10 fold excess of peptide [3]: ~25%
sedimentation assay: soluble hIAPP remaining after 72 hours, 10 fold excess of peptide [3]: ~20%

Molecule: NNFGAI
molar excess of peptide needed to keep IAPP in random conformation (CD, 48 hours) [3]: 20 fold molar excess

Molecule: GAILSS
sedimentation assay: soluble hIAPP remaining after 24 hours, 10 fold excess of peptide [3]: > 80%
sedimentation assay: soluble hIAPP remaining after 48 hours, 10 fold excess of peptide [3]: ~25%
sedimentation assay: soluble hIAPP remaining after 72 hours, 10 fold excess of peptide [3]: ~20%

Second part, led by results:

effect on IAPP fibril morphology / density / aggregation (EM) [1]: lower density of IAPP fibrils
inhibitory activity from the circular dichroism results, peptides from the 8–20 region (summary) [2]: have inhibitory activity
description of activity on IAPP conformation (CD), peptides from the 8–20 region [2]: maintained a random coil
Molecule: ANFLVH [FRA-019]

inhibitory activity from the circular dichroism results, peptides from the 8–20 region (summary) [2]: have inhibitory activity
effect on IAPP conformation (CD) [2]: limited inhibition
Molecule: ATQRLA [FRA-012]
effect on IAPP fibril morphology / density / aggregation (EM) [1]: only limited effects on the density and morphology of the fibrils

inhibitory activity from the circular dichroism results, peptides from the 8–20 region (summary) [2]: have inhibitory activity
description of activity on IAPP conformation (CD), peptides from the 8–20 region [2]: some modest inhibition
Molecule: FLVHSS [FRA-018]

effect on IAPP fibrils (EM) ([1]; 10-fold excess): disruption of normal fibrils
effect on IAPP fibrils (EM) ([1]; 20 fold molar excess): Some fibrils were also seen
effect on IAPP conformation (CD), peptides from the 8–20 region [2]: relatively good inhibition
inhibitory activity from the circular dichroism results, peptides from the 8–20 region (summary) [2]: have inhibitory activity
effect on IAPP conformation (CD) [2]: better activity
Molecule: LANFLV [FRA-016]

inhibitory activity from the circular dichroism results, peptides from the 8–20 region (summary) [2]: have inhibitory activity
description of activity on IAPP conformation (CD), peptides from the 8–20 region [2]: limited inhibitory activity
Molecule: NFLVHS [FRA-017]
effect on IAPP fibril morphology / density / aggregation (EM) [1]: only limited effects on the density and morphology of the fibrils

effect on IAPP fibril morphology / density / aggregation (EM) [1]: significantly accelerated aggregation
Molecule: QRLANF [FRA-014]

effect on IAPP fibril morphology / density / aggregation (EM) [1]: significantly accelerated aggregation
effect on IAPP conformation (CD) [2]: possibility of a random coil
Molecule: TQRLAN [FRA-013]
effect on IAPP conformation (CD), peptides from the 8–20 region [2]: enhanced formation of the beta-sheet conformation
